Assay results reported in patent US20230272086A1 (CHIA TAI TIANQING PHARMACEUTICAL GROUP, published 2023).

T1: human ST2 (hST2, Interleukin-1 receptor-like 1 isoform A) on cells (human, UniProt Q01638 19-556)
T1 construct: the same id is used for hST2 naturally expressed on KU812 cells and on human CD4+ T cells; also called HEK293T-hST2-NFκB-Luciferase; KU812-NFκB-Luciferase
T1 sequence: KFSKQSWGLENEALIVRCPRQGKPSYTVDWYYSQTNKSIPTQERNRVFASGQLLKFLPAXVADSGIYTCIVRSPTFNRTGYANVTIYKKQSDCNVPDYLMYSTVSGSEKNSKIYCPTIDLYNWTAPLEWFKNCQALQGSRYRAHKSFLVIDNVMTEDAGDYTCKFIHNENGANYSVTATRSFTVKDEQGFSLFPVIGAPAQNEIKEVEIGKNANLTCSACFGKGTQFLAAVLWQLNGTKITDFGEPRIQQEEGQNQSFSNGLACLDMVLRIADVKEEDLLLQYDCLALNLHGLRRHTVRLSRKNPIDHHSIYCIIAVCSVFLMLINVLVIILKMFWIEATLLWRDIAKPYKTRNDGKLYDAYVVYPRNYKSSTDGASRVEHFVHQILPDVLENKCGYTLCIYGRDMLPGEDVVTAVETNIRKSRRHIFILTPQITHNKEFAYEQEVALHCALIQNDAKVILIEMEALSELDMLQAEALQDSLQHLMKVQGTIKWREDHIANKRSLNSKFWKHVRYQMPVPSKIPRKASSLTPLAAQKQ

T2: cynomolgus monkey ST2 on HEK293T-Cyno-ST2-NFκB-Luciferase cells (cynomolgus monkey, UniProt Q01638 19-556 (human entry))
T2 chain: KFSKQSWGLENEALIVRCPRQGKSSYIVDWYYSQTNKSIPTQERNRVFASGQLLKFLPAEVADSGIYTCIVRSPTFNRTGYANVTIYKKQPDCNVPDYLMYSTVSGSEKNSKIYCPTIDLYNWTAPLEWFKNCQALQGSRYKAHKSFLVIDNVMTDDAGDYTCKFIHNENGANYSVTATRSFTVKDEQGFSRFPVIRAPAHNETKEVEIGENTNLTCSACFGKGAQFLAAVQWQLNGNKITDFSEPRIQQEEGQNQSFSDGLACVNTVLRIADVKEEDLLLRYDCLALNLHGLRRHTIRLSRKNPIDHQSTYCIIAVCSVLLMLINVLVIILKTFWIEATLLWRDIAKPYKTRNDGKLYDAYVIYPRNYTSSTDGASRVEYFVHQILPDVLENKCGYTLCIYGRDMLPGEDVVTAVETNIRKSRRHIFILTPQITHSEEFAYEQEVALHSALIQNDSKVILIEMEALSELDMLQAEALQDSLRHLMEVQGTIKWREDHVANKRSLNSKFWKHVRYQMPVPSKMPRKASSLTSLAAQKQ

T3: cynomolgus monkey ST2 antigen (Cyno-ST2-his, Sino biological, 90915-C08H) (cynomolgus monkey, UniProt Q01638 19-328 (human entry))
T3 construct: Bought protein; not shown: his tag
T3 chain: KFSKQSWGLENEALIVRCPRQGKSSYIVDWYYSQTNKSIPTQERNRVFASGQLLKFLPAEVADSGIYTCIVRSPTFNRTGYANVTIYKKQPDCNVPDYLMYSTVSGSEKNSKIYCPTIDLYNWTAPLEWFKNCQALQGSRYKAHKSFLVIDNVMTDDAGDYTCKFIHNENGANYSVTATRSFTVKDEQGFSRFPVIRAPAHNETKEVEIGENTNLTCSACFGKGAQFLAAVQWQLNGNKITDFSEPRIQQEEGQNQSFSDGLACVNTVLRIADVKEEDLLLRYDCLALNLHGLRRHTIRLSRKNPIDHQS


Assays:
[1] = biological target: T1, human ST2 (hST2, Interleukin-1 …); assay: flow cytometry on HEK293T-hST2-NFκB-Luciferase cells
Experimental: (§1) The binding capacity of the anti-ST2 antibodies to hST2-overexpressing cell lines and cyno-ST2-overexpressing cell lines was analyzed using an FACS-based method through binding assays with the hST2 (SEQ ID NO:1)-overexpressing HEK293T cell line (HEK293T-hST2-NFκB-Luciferase) and the cynomolgus monkey ST2 (SEQ ID NO: 10)-overexpressing HEK293T cell line (HEK293T-Cyno-ST2-NFKB-Luciferase). HEK293 cells were transfected with the pLenti6.3- hST2 plasmid and the pLenti6.3-NFκB-luciferasae plasmid using a lentiviral transfection system to construct the cell line HEK293T-hST2-NFκB-Luciferase. HEK293T cells were transfected with the pLenti6.3-cynoST2 plasmid and the pLenti6.3-NFκB-luciferasae plasmid to construct the cell line HEK293T-Cyno-ST2-NFκB-Luciferase.
(§2) 3 × 10⁵ HEK293T-hST2-NFκB-Luciferase or HEK293T-Cyno-ST2-NFκB-Luciferase cells were added to a 96-well culture plate. Serially diluted anti-ST2 antibodies (serially diluted 4-fold from an initial concentration of 667 nM to 8 concentrations in binding assays with the HEK293T-hST2-NFκB-Luciferase cells; serially diluted 4-fold from an initial concentration of 400 nM to 8 concentrations in binding assays with the HEK293T-Cyno-ST2-NFκB-Luciferase cells) were added to the cell suspensions. After the plate was incubated at room temperature for 60 min, the cells were washed 3 times with PBS. […] The cells were washed 3 times with PBS and resuspended in 100 µ1L of PBS, and then the fluorescence signals were analyzed and detected using a flow cytometer (BD, Accuri C6). The binding capacity of the anti-ST2 antibodies to hST2 and cyno-ST2 on the cell line surfaces was measured in terms of the mean fluorescence intensity (MFI) of staining. The data were analyzed using GraphPad Prism5, and the EC₅₀ values were calculated. The EC₅₀ values for the binding of the anti-ST2 chimeric antibodies to hST2 and Cyno-ST2 at the cellular level are shown in Table 8 and FIGS. 7-8.

[2] = biological target: T2, cynomolgus monkey ST2 on …; assay: flow cytometry on HEK293T-Cyno-ST2-NFκB-Luciferase cells
Experimental: as §1, §2

[3] = biological target: T3, cynomolgus monkey ST2 antigen …; assay: SPR (Biacore T200), Cyno-ST2-his captured by anti-his antibody on CM5, antibody as analyte, 1:1 model
Experimental: The reaction signals were detected in real time using a Biacore instrument (Cytiva, BiacoreT200), and then an association-dissociation curve was obtained. After the completion of dissociation in each cycle, the biochip was regenerated with a regeneration solution for the next capture; the procedure was repeated until the affinity of the different antibodies for ST2 was determined. The acquired data were finally analyzed using the GE BIAevaluation software with a 1:1 (Langmuir) binding model to determine the association rate constants ka (kon) and the dissociation rate constants kd (koff), and the dissociation constants KD were given by KD = kd/ka. The determined affinity of the anti-ST2 antibody for human ST2 antigen (hST2-ECD-mFc), cynomolgus monkey ST2 antigen (Cyno-ST2-his, Sino biological, 90915-C08H) and the determined affinity of the anti-ST2 chimeric antibodies for ST2 were shown in Table 5.

Binder | EC50 [1] | EC50 [2] | Kd [3]
RG6149 (antibody Ab2 in CN104334582, prepared in-house) (antibody, human IgG2, kappa, V domains shown, Control anti-ST2 antibody) VH: EVQLVQSGAEVKKPGESLKISCKGSGYSFTNYWIGWVRQMPGKGLEWMGIIYPGNSDTRFSPSFQGQVTISADKSITTAYLQWSSLKASDTAMYYCARHGTSSDYYGLDVWGQGTTVTVSS VL: not shown | 0.589 nM | 0.647 nM | 0.049 nM
Chimeric 31C8 (antibody, human IgG2, kappa, V domains shown, also called xi31C8) VH: QVQLQQSGPELVRPGASVTLSCKASGYIFIDSEMHWVKQTPVHGLEWIGAIDPETGDTVYNQKFKGKATLTADKSSSTASMELSSLTSEDSAVYYCTGSTTDYYFAYWGQGTTLTVSS VL: DIVMTQAAFSNPVTLGTSASISCRSSKSLLHSNGIIYLYWYLQKPGQSPQLLIYQMSNLASGVPDRFSSSGSGTDFTLRISRVEAEDVGVYYCAQNLELPFTFGSGTKLEIKR | 0.298 nM | 0.83 nM | 0.323 nM
Chimeric 3C6 (antibody, human IgG2, kappa, V domains shown, also called xi3C6) VH: QVQLQQSGAEVVRPGASVTLSCKASDYTITDYEMHWVKQTPVHGLEWIGAIDPETGDTAYSQNFKGKATLTADESSSTAYMELSSLTSEDSAVYYCSRSATDYYFASWGQGTTLTVSS VL: DIVMTQAAISNPVTLGTSASMSCRSSKSLLHSNGITYLYWYLQKPGHSPQLLIYQMSNLASGVPDRFSSSGSGTDFTLKISRVEAEDVGVYYCAQNLELPFTFGSGTKLEIKR | 0.349 nM | 105 nM | 152 nM
Chimeric 26A1 (antibody, human IgG2, kappa, V domains shown, also called xi26A1) VH: QVQLQQSGAELVRPGASVTLSCKASDYIFTDSEIHWVKQTLVHGLEWIGAIDPETGDTAYNQKFKGKATLTADKSSSTAYMELSSLTSEGSAVYYCSGSTTDCYFAYWGQGTTLTVSS VL: DIVMTQAAFSNPVTLGTSASISCRSSKSLLHSNGIIYLYWYLQKPGQSPQLLIYQMSNLASGVPDRFSSSGSGTDFTLRISRVEAEDVGVYYCAQNLELPFTFGSGTKLEIKR |  | 415 nM | 69.8 nM

Stronger by EC50 [2], values ahead:

EC50 [1] | EC50 [2] | Kd [3] | Binder
0.265 nM | 0.394 nM | 0.124 nM | Chimeric 7D1 (antibody, human IgG2, kappa, V domains shown, also called xi7D1) VH: QVQLQQSGAELVRPGASVTLSCKASGYTFTDYEMHWVKQTPVHGLDWIGTIDPETGDTAYNQKFKGRATLTADKSSSTAYMELSSLTSEDSAVYYCTRYSYTNSPYGMDYWGQGTSVTVSS VL: DVVMTQTPKFLLVSAGDRVTITCKASQSVSNDVAWYQQKPGQSPKLLIYYASNRYTGVPDRFTGSGYGTDFTFTINTVQAEDLAVYFCQQDYSSPYTFGGGTKLEIKR
0.224 nM | 0.487 nM | 0.0257 nM | Chimeric 17E2 (antibody, human IgG2, kappa, V domains shown, also called xi17E2) VH: QVQLQQSGAELVRPGASVTLSCKASGYTFTDYEMHWVKQTPVLGLEWIGAIDPETGDTAYNQKFKGKATLTADKSSSTAYMELSSLASEDSAVYYCIRVDSNYDYFDYWGQDTTLTVSS VL: DIVLTQSPPILSASPGEKVTMTCRASSSVSYMHWYQQKPGSSPKPWIYDTSNLASGVPARFSGSGSGTSYSLTISRVEAEDAATYYCQQWSSNPLTFGAGTKLELKR
0.343 nM | 0.458 nM | 4.04 nM | Chimeric 8F4 (antibody, human IgG2, kappa, V domains shown, also called xi8F4) VH: QVQLQQSGAELVRPGASVTLSCKASGHIFTDYEMQWVKQTPVHGLEWIGAFDPETGDTAYNQKFKGKATLTADKSSSTAYMELSSLTSEDSAVYYCSGSTTDYYFAYWGQGTSLTVSS VL: DVVMTQTAFSNPVTLGTSASISCRSSKSLLHSNGIIYLYWYLQKPGQSPQLLIYQMSNLASGVPDRFSSSGSGTDFTLRISRVEAEDVGVYYCAQNLELPFTFGSGTKLEIKR
